Source: patent US20180362643A1 (Amgen, published 2018)
Ends that are not written are not given here.

T1: full-length human PACAP38 (human, not fully specified)
T1 construct: Corresponds to amino acids 132-169 of the precursor (NP 001108.2); The description says natural PACAP38 is C-terminally amidated; also called Full-length PACAP38
T1 peptide: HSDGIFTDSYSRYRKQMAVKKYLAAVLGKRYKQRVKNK

T2: amino terminal PACAP38 peptide (amino acids 1-13) (human)
T2 construct: also called N-terminal Peptide; N-terminal PACAP peptide
T2 peptide: HSDGIFTDSYSRY

T3: carboxy terminal PACAP38 peptide (amino acids 28-38) (human, ends and bridges not checked)
T3 construct: also called C-terminal Peptide; C-terminal PACAP peptide
T3 peptide: GKRYKQRVKNK

T4: vasoactive intestinal peptide (VIP) (human)
T4 construct: also called human VIP
T4 peptide: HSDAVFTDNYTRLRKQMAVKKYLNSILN

T5: PACAP38 peptide fragment 27-38 (human, ends and bridges not checked)
T5 construct: also called peptide No. 6
T5 peptide: LGKRYKQRVKNK

T6: PACAP38 peptide fragment 34-38 (human, ends and bridges not checked)
T6 construct: also called peptide No. 17; RVKNK
T6 peptide: RVKNK

T7: PACAP38 peptide fragment 11-27 (human)
T7 construct: also called peptide No. 8
T7 peptide: SRYRKQMAVKKYLAAVL

T8: 31-38 (ends and bridges not checked)
T8 construct: also called PACAP38 peptide fragment 31-38; peptide No. 5
T8 peptide: YKQRVKNK

T9: 30-37
T9 construct: also called PACAP38 peptide fragment 30-37; peptide No. 19
T9 peptide: RYKQRVKN

T10: PACAP38 peptide fragment 14-38 (human, not fully specified)
T10 construct: also called peptide No. 7
T10 peptide: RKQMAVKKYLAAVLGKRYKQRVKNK

T11: human PACAP27 (human, not fully specified)
T11 peptide: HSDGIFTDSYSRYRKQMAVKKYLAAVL

T12: PACAP38 peptide fragment 6-38 (human, not fully specified)
T12 construct: also called peptide No. 11
T12 peptide: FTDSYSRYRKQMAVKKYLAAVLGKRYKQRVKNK

T13: PACAP38 peptide fragment 6-36 (human)
T13 construct: also called peptide No. 12
T13 peptide: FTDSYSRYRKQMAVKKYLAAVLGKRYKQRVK

T14: PACAP38 peptide fragment 6-35 (human)
T14 construct: also called peptide No. 4
T14 peptide: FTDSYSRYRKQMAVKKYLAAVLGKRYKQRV

T15: PACAP38 peptide fragment 6-37 (human)
T15 construct: also called peptide No. 3
T15 peptide: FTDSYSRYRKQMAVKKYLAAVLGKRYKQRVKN

T16: PACAP38 peptide fragment 4-27 (human)
T16 construct: also called peptide No. 9
T16 peptide: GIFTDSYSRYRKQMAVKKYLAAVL

T17: PACAP38 peptide fragment 6-20 (human)
T17 construct: also called peptide No. 13
T17 peptide: FTDSYSRYRKQMAVK

T18: PACAP38 peptide fragment 26-33 (human)
T18 construct: also called peptide No. 2
T18 peptide: VLGKRYKQ

B1: mAb4 (antibody, V domains shown)
VH: QSVEESGGRLVTPGTPLTLTCTASGIDLSSYAMIWVRQAPGEGLEYIGFIDAGDGNTYYASWAKGRFTISKTSTTVDLKITSPTTEDTATYFCARGDPGWSNGFALWGQGTLVTVSS
VL: DIVMTQTPASVSGAVGGTVTIKCQASQSIRNELSWYQQKPGQPPKLLIYKASTLASGVPSRFSGSGFGTEFTLTISGVQCDDAATYYCQNNYGTRRNNYVFPFGGGTEVVVKG
notes: Rabbit monoclonal antibody (SLAM), recombinant; also called monoclonal anti-PACAP antibody 4; 4 (c47)
B2: mAb3 (antibody, V domains shown)
VH: QSLEESGGGLVQPGASLTLTCTASGFSFSSNYYMCWVRQAPGKGLEWIACIFTGSSGSTYYASWAKGRFTISKTSSTTVTLHVTSLTAADTATYFCARDRALSVVGYFYAAYYFDFWGPGTLVTVSS
VL: DVVMTQTPSPVSAAVGGTVTINCRASEDIESFLAWYQQKPGQPPKLLMSRTSTLESGVPSRFKGSGSGTEFTLTISDLECADAATYYCQCTDGSSSSSSYGWDAFGGGTEVVVKG
notes: Rabbit monoclonal antibody (SLAM), recombinant; also called monoclonal anti-PACAP antibody 3; 3 (c89)
B3: mAb1 (antibody, V domains shown)
VH: QSLEESGGDLVKPGASLTLTCKASGIAFSNDYMCWVRQAPGKGLEWIACIFTGSSGSTYYASWAKGRFTISKTSSTTVTLQMTSLTAADTATYFCARDRAISVLGYFYAAYFFDFWGPGTLVTVSS
VL: DVVMTQTPSPVSAAVGGTVTINCRASEDIESFLAWYQQKPGQPPKLLISRTSTLESGVSSRFKGSGSGTEFILTISDLECADAATYYCQCTDGSSSSSSYGWDAFGGGTEVVVKG
notes: Rabbit monoclonal antibody (SLAM), cloned, recombinantly expressed and purified; also called monoclonal anti-PACAP antibody 1; 1 (c20)

Key:
[1] = biological target: T1, full-length human PACAP38; assay: ELISA screen of B-cell culture supernatant; full-length PACAP38 at 10 ng/mL
Description: (§1) Rabbits were immunized with human PACAP38 peptide ([…]; SEQ ID NO: 1). Monoclonal antibodies were generated from the immunized rabbits using the Selected Lymphocyte Antibody Method (SLAM) as described in Babcook et al., Proc. Natl. Acad. Sci. USA, Vol. 93: 7843-7848, 1996. Briefly, B cells were harvested from spleens from the immunized rabbits and expanded in culture. The supernatant from the expanded B-cell cultures was initially screened for binding to an amino terminal PACAP38 peptide ([…]; SEQ ID NO: 5) and a carboxy terminal PACAP38 peptide ([…]; SEQ ID NO: 4) using an ELISA assay. From the initial screen, 2,935 N-terminal and/or C-terminal binders were identified. The affinity of these antibodies for full-length human PACAP38 (SEQ ID NO: 1) was assessed by ELISA assay.

[2] = biological target: T2, amino terminal PACAP38 peptide (amino …); assay: ELISA screen of B-cell culture supernatant; N-terminal peptide at 500 ng/mL; ELISA screen of B-cell culture supernatant (Example 1); N-terminal peptide 500 ng/mL; optical density
Description: as §1

[3] = biological target: T3, carboxy terminal PACAP38 peptide (amino …); assay: ELISA screen of B-cell culture supernatant
[4] = biological target: T1, full-length human PACAP38; assay: cell-based or functional assay
[5] = biological target: T4, vasoactive intestinal peptide (VIP); assay: ELISA screen of B-cell culture supernatant; VIP at 100 ng/mL
[6] = biological target: T5, PACAP38 peptide fragment 27-38; assay: SPR (Biacore 3000) solution competition against immobilised PACAP38
[7] = biological target: T6, PACAP38 peptide fragment 34-38; assay: SPR (Biacore 3000), solution competition with the peptide for antibody binding to immobilised full-length PACAP38; % inhibition
Procedure: (§2) The binding epitopes of anti-PACAP antibodies were evaluated by using the Biacore 3000 biosensor-based instrument (GE Healthcare USA). The Biacore 3000 instrument utilizes surface plasmon resonance (SPR) technology to measure mass increase on the sensor-chip surface. The binding interactions are measured in real-time and recorded as Response Units (RU). Each binding profile (cycle) is stored in a “sensorgram” in real-time. Generally, Biacore technology entails immobilizing a ligand of interest on to a flow-cell of the sensor-chip via a coupling chemistry. The analyte (e.g. putative binding partner to the ligand of interest) is injected across the immobilized ligand allowing it to bind to the ligand-immobilized surface. The magnitude of the response is directly proportional to the mass increase on the immobilized surface due to the binding of the analyte.
(§3) In this experiment, various peptide fragments of PACAP38 were incubated with each of the six antibodies (mAb1, mAb2, mAb3, mAb4, mAb5, and mAb6) described in Example 2 and evaluated for their ability to inhibit binding of the antibodies to full-length PACAP38 immobilized on the sensor-chip. The binding epitopes for each of the antibodies were deduced from the set of peptides that were able to inhibit the binding of each antibody to full-length PACAP38.
(§4) Each of the six anti-PACAP antibodies was incubated at a 1:200 molar ratio (Ab: peptide fragment) with each of the peptide fragments in Table 9 at an ambient temperature for 2 hours prior to analysis. […] A second control containing 6.5 nM antibody was prepared in sample diluent to be used as the untreated control sample for each antibody. Full-length PACAP38, buffer, and each peptide fragment were also tested to evaluate non-specific binding to the immobilized PACAP38 surface.

[8] = biological target: T7, PACAP38 peptide fragment 11-27; assay: as above
Procedure: as §2, §3, §4

[9] = biological target: T8, 31-38; assay: as above
Procedure: as §2, §3, §4

[10] = biological target: T9, 30-37; assay: as above
Procedure: as §2, §3, §4

[11] = biological target: T10, PACAP38 peptide fragment 14-38; assay: as above
Procedure: as §2, §3, §4

[12] = biological target: T11, human PACAP27; assay: cell-based or functional assay
[13] = biological target: T3, carboxy terminal PACAP38 peptide (amino …); assay: ELISA screen of B-cell culture supernatant; C-terminal peptide at 500 ng/mL
Description: as §1

[14] = biological target: T12, PACAP38 peptide fragment 6-38; assay: SPR (Biacore 3000) solution competition: antibody pre-incubated 1:200 with the fragment, then injected over immobilised PACAP38
Procedure: as §3, §4

[15] = biological target: T13, PACAP38 peptide fragment 6-36; assay: as above
Procedure: as §3, §4

[16] = biological target: T14, PACAP38 peptide fragment 6-35; assay: as above
Procedure: as §3, §4

[17] = biological target: T15, PACAP38 peptide fragment 6-37; assay: as above
Procedure: as §3, §4

[18] = biological target: T16, PACAP38 peptide fragment 4-27; assay: as above
Procedure: as §3, §4

[19] = biological target: T17, PACAP38 peptide fragment 6-20; assay: as above
Procedure: as §3, §4

[20] = biological target: T4, vasoactive intestinal peptide (VIP); assay: ELISA screen of B-cell culture supernatant
[21] = biological target: T5, PACAP38 peptide fragment 27-38; assay: SPR (Biacore 3000), solution competition: antibody pre-incubated 2 h with the peptide at 1:200 molar ratio (Ab:peptide), then injected over immobilised full-length PACAP38; readout % inhibition of antibody binding (filing counts >50 % as reactive)
Procedure: as §2, §3, §4

[22] = biological target: T2, amino terminal PACAP38 peptide (amino …); assay: SPR (Biacore 3000), solution competition with the peptide for antibody binding to immobilised full-length PACAP38; % inhibition
Procedure: as §2, §3, §4

[23] = biological target: T17, PACAP38 peptide fragment 6-20; assay: as above
Procedure: as §2, §3, §4

[24] = biological target: T2, amino terminal PACAP38 peptide (amino …); assay: ELISA screen of B-cell culture supernatant; N-terminal peptide at 500 ng/mL
[25] = biological target: T8, 31-38; assay: SPR (Biacore 3000), solution competition: antibody pre-incubated 2 h with the peptide at 1:200 molar ratio (Ab:peptide), then injected over immobilised full-length PACAP38; readout % inhibition of antibody binding (filing counts >50 % as reactive)
Procedure: as §2, §3, §4

[26] = biological target: T18, PACAP38 peptide fragment 26-33; assay: SPR (Biacore 3000) solution competition against immobilised PACAP38

Binder	Optical Density [5] [OD]	binding result [7]	binding result [10]	Optical Density [13] [OD]	binding result [20]	binding result [21]	binding result [22]	binding result [23]	Optical Density [24] [OD]	further results
B1	0.24	no binding (tested: 1:200 molar ratio (Ab:peptide))	no binding (tested: 1:200 molar ratio (Ab:peptide))	0.05	–	–	–	–	–	Optical Density [1]: 2.09 OD; Optical Density [2]: 3.68 OD; binding result [3]: no binding (tested: 500 ng/mL); IC50: inhibition of PACAP38 (10 pM)-induced activation of human PAC1 receptor, cAMP assay in SH-SY5Y (CRL-2266) cells, POC versus antibody concentration [4]: 12 nM; binding result [6]: no binding (tested: 1:200 molar ratio (Ab: peptide fragment)); binding result [8]: no binding (tested: 1:200 molar ratio (Ab:peptide)); binding result [9]: no binding (tested: 1:200 molar ratio (Ab:peptide)); binding result [11]: no binding (tested: 1:200 molar ratio (Ab:peptide)); IC50: inhibition of PACAP27 (10 pM)-induced activation of human PAC1 receptor, cAMP assay in SH-SY5Y (CRL-2266) cells, POC versus antibody concentration [12]: 3.7 nM; binding result [14]: binds; binding result [15]: binds; binding result [16]: binds; binding result [17]: binds; binding result [18]: binds; binding result [19]: binds
B2	0.07	no binding (tested: 1:200 molar ratio (Ab:peptide))	no binding (tested: 1:200 molar ratio (Ab:peptide))	3.59	no binding (tested: 100 ng/mL)	binds	no binding (tested: 1:200 molar ratio (Ab:peptide))	no binding (tested: 1:200 molar ratio (Ab:peptide))	0.06	–
B3	0.08	–	–	5.33	no binding (tested: 100 ng/mL)	binds	no binding (tested: 1:200 molar ratio (Ab:peptide))	no binding (tested: 1:200 molar ratio (Ab:peptide))	0.05	binding result [25]: binds; binding result [26]: no binding (tested: 1:200 molar ratio (Ab: peptide fragment))
